To fix the notation:
T1: mouse LPA3 with FLAG tag (mouse LPA3 gene transfected cell) (mouse, UniProt Q9EQ31 1-354)
T1 construct: not shown: FLAG tag added at the 5' terminal of the gene
T1 sequence: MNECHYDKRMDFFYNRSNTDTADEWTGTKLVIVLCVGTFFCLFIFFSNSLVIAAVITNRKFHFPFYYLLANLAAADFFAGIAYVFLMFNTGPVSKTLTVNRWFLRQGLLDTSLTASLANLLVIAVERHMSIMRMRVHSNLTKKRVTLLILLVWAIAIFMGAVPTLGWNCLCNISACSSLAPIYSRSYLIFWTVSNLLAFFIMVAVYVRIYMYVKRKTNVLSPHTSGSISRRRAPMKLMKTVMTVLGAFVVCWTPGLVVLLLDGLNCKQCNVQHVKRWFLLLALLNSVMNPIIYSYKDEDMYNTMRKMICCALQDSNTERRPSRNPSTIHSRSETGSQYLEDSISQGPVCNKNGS

T2: human LPA3 with FLAG tag (human LPA3 gene transfected cell) (human, UniProt Q9UBY5 1-353)
T2 construct: also called EDG7; not shown: FLAG tag added at the 5' terminal of the gene
T2 sequence: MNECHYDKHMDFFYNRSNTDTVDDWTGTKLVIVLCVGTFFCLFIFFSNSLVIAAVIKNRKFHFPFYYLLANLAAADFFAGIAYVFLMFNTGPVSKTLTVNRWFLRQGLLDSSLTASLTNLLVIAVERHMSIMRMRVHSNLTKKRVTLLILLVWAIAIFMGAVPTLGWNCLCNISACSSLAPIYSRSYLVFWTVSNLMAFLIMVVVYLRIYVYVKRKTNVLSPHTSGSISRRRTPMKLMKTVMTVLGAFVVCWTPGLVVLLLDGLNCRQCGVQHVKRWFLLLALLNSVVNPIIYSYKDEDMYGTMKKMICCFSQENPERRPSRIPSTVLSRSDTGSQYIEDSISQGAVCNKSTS

B1: 210309-1-G (antibody, mouse IgG1, V domains shown)
VH: QVQLQQSGAELARPGASMKLSCRASGYTFTSYGISWVKQRTGQGLEWIGEIYPRSGVTYYNEKFKGRATLTADKSSSTAFMELRSLTSEDSAVYFCARESISLRLGWYFDVWGTGTTVTVSS
VL: DIQMTQSPASLSASVGDTVTITCRASENIYRFLAWYQQKQRKSPHLLVYNAKTLAEGVPSRFSGSGSGTQFSLKINSLQPEDFGSYYCQHHYGPPLTFGAGTKLELT
notes: Mouse monoclonal from human LPA1 immunization
B2: 211222-1-G (antibody, mouse IgG1, V domains shown)
VH: QVQVQQSGAELARPGASVRLSCKASGYTFTSFGVNWVKQRTGQGLEWIGQIYPRTGTTYHNERFKGKATLTADKSSSTAYMELRSLTSEDSAVYFCAREGDRYSLAYWGQGTLVTVSA
VL: B1 VL with D17E, R41G, H45Q, A55V, S77N, P94I, T107K
notes: as for B1
B3: 210420-4-E (antibody, mouse IgG1, V domains shown)
VH: QLHLQQSGAELARPGASVRLSCKASGYTFASFGISWVKQRTGQGLEYIGEIYPRSGTTYFNEKFRGKATLSADKSSSTAYMELRSLTSEDSAVYFCAREGVRRYAMDYWGQGTSVTVSS
VL: B1 VL with M4V, D17E, E27G, R31S, R41G, H45Q, N76S, P94I, E105D, T107K
notes: Mouse monoclonal from mouse LPA1 immunization
B4: 210309-2-D (antibody, mouse IgG1, V domains shown)
VH: B1 VH with M18V, R23K, V57N, F64V, R67K, F80Y, S102F
VL: B1 VL with D17E, E27D, R41G, H45Q, S67T, S85I, T107K
notes: as for B1
B5: 210420-3-E (antibody, mouse IgG1, V domains shown)
VH: B3 VH with H3Q, R19K, T41A, S71T, S85R
VL: B1 VL with M4V, D17E, E27G, R31S, R41G, H45Q, P94I, E105D, T107K
notes: as for B3

Experimental findings from patent publication US20250171532A1 (NB HEALTH LABORATORY, published 2025) are described below.

Substitutions are numbered along the chain they refer to.

T4 sequence (Q9JL06 whole entry): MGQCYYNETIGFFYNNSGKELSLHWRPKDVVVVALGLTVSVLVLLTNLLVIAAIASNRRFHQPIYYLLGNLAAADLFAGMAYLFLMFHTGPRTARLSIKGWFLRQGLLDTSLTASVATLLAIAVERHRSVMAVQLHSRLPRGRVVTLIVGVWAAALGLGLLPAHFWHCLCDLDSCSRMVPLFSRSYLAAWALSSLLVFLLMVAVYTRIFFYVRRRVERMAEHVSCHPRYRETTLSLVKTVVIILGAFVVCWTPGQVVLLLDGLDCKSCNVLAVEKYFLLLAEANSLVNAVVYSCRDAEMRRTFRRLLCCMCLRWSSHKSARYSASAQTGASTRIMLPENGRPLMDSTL
T6 sequence (P61793 whole entry): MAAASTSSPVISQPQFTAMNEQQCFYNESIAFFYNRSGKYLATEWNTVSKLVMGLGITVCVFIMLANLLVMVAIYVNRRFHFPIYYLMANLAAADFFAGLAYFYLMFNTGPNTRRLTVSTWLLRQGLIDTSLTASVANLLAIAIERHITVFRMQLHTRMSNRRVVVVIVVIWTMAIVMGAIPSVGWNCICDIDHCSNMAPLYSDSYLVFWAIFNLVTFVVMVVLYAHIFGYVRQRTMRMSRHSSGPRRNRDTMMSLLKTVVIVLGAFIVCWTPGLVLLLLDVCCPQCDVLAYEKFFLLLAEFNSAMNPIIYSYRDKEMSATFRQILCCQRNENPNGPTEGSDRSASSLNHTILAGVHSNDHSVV

The target in the first assay is T3, human LPA2 with FLAG tag (human LPA2 gene transfected cell) (human, UniProt Q9HBW0 1-348).
T3 construct: also called EDG4; not shown: FLAG tag added at the 5' terminal of the gene
T3 sequence (Q9HBW0 other isoform, or with tags, fused parts or gaps): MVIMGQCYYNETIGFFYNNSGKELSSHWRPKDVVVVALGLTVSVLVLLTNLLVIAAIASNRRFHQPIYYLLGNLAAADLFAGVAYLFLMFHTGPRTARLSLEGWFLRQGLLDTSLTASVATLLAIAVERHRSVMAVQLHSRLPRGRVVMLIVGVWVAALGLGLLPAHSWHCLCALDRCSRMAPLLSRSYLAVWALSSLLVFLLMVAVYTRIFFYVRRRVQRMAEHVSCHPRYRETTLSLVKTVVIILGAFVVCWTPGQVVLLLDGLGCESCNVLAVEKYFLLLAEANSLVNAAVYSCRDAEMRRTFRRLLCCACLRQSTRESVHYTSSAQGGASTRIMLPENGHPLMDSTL
In words: flow cytometry, transfected HEK293FT cells, histogram shift. The method, then: (§1) BTEK293FT cell was transfected with 10 μg of an expression vector carrying each synthetic gene using Lipofectamine 2000, to prepare a human LPA1 gene transfected cell, a mouse LPA1 gene transfected cell, a human LPA2 gene transfected cell, a mouse LPA2 gene transfected cell, a human LPA3 gene transfected cell, and a mouse LPA3 gene transfected cell.
(§2) The next day, the cells were washed with PBS, then detached from the cell culture dishes by an enzyme-free cell dissociation buffer (Thermo Fisher Scientific, Inc.), then washed with PBS, and then collected by centrifugation. Goat serum (Thermo Fisher Scientific, Inc.) was diluted by 2 times in FACS buffer (PBS containing 1% o of FBS), into which the cells were suspended at 1×10⁷ cells/mL. This suspension was allowed to stand at 4° C. for 30 minutes to block the cells. The cells were collected by centrifugation and suspended in FACS buffer at 4×10⁶ cells/mL, and this suspension was dispensed into a V-bottom 96-well plate (Thermo Fisher Scientific, Inc.) at 25 μL (1×10⁵ cells)/well.
(§3) The cells were collected by centrifugation and washed with 120 μL of FACS buffer. This washing operation was repeated twice. To the cell sediment, 25 μL each of Goat Anti-Mouse IgG H&L (DyLight 650) (Abcam) that was a secondary antibody diluted by 500 times in FACS buffer was dispensed, then suspended, and then allowed to stand at 4° C. for 1 hour. The cells were washed twice, then suspended in 50 μL of FACS buffer, and the whole content thereof was transferred to a V-bottom 96-well plate (Greiner), to measure the binding of antibodies to the cells using a flow cytometer (Agilent Novocyte).
Background: Flow cytometry measures light scatter and fluorescence of single cells or particles in a stream.
Turning to B1, the binding result is on record as “no binding (tested: 25 g/mL (so in the source))”.

Take B2: the binding result was “no binding (tested: 25 g/mL (so in the source))”.

As for B3, the binding result is “no binding (tested: 25 g/mL (so in the source))”.

For the molecule B4, the binding result is reported as “no binding (tested: 25 g/mL (so in the source))”.

Consider B5, for which the binding result is “no binding (tested: 25 g/mL (so in the source))”.

The next assay addresses T4, mouse LPA2 with FLAG tag (mouse LPA2 gene transfected cell) (mouse, UniProt Q9JL06 1-348).
T4 construct: not shown: FLAG tag added at the 5' terminal of the gene
The assay is described as above. The method, then: as §1, §2, §3
As to B1, the binding result is “no binding (tested: 25 g/mL (so in the source))”.

Turning to B2, the binding result is recorded as “no binding (tested: 25 g/mL (so in the source))”.

Regarding B3, the binding result is “no binding (tested: 25 g/mL (so in the source))”.

As for B4, the binding result was “no binding (tested: 25 g/mL (so in the source))”.

For B5, the binding result is “no binding (tested: 25 g/mL (so in the source))”.

In the next assay the target is T1, mouse LPA3 with FLAG tag (mouse LPA3 …). The description is as above. The method, then:
as §1, §2, §3
For the molecule B1, the binding result is reported as “no binding (tested: 25 g/mL (so in the source))”.

As to B2, the binding result is “no binding (tested: 25 g/mL (so in the source))”.

For the molecule B3, the binding result is recorded as “no binding (tested: 25 g/mL (so in the source))”.

Consider B4, for which the binding result is recorded as “no binding (tested: 25 g/mL (so in the source))”.

For the molecule B5, the binding result is reported as “no binding (tested: 25 g/mL (so in the source))”.

In a further assay the target is T2, human LPA3 with FLAG tag (human LPA3 …). The description is as above. The method, then:
as §1, §2, §3
Turning to B1, the binding result is listed as “no binding (tested: 25 g/mL (so in the source))”.

In the case of B2, the binding result is “no binding (tested: 25 g/mL (so in the source))”.

Turning to B3, the binding result is “no binding (tested: 25 g/mL (so in the source))”.

As to B4, the binding result is “no binding (tested: 25 g/mL (so in the source))”.

Take B5: the binding result is “no binding (tested: 25 g/mL (so in the source))”.

The next assay deals with T5, human LPA1 (human, UniProt Q92633 1-364). Kind of assay: cell-based or functional assay.
T5 sequence (Q92633 whole entry): as the sequence (P61793 whole entry) above, with A4I, S8I, Q22P, Y40H, V61I, D193E, H194N, V269I, N331S, N335T counted along it
For B1, the “Intracellular cAMP signaling inhibition (Inhibition rate %/100 nM)” value came out at 34%.

For B2, the “Intracellular cAMP signaling inhibition (Inhibition rate %/100 nM)” value amounted to 22%.

With B3, the “Intracellular cAMP signaling inhibition (Inhibition rate %/100 nM)” value worked out at 24%.

On to B4, for which the “Intracellular cAMP signaling inhibition (Inhibition rate %/100 nM)” value is 51%.

B5: the “Intracellular cAMP signaling inhibition (Inhibition rate %/100 nM)” value stood at 44%.

Another assay has as its target T6, mouse LPA1 (mouse, UniProt P61793 1-364). Kind of assay: cell-based or functional assay.
As to B1, the “Intracellular cAMP signaling inhibition (Inhibition rate %/100 nM)” value was found to be 36%.

On to B2, for which the “Intracellular cAMP signaling inhibition (Inhibition rate %/100 nM)” value came out at 49%.

With B3, the “Intracellular cAMP signaling inhibition (Inhibition rate %/100 nM)” value amounted to 46%.

With B4, the “Intracellular cAMP signaling inhibition (Inhibition rate %/100 nM)” value was 53%.

In the case of B5, the “Intracellular cAMP signaling inhibition (Inhibition rate %/100 nM)” value came to 50%.

The next assay concerns the target T5, human LPA1. In words: flow cytometry, human LPA1-stably expressing CHO cells, median fluorescence intensity. From the text: (§4) The human LPA1-stably expressing CHO cell and the mouse LPA1-stably expressing CHO cell were washed with PBS, then detached from the cell culture dishes by an enzyme-free cell dissociation buffer (Thermo Fisher Scientific, Inc.), then washed with PBS, and then collected by centrifugation. The human LPA1-stably expressing CHO cell and the mouse LPA1-stably expressing CHO cell were suspended at 1×10⁷ cells/mL in Fc Block (Sci-Tech Biosciences, Inc.) diluted by 500 times in FACS buffer, and then allowed to stand at 4° C. for 30 minutes to block the cells. The cells were collected by centrifugation and suspended in FACS buffer at 4×10⁶ cells/mL, and this suspension was dispensed into a V-bottom 96-well plate (Thermo Fisher Scientific, Inc.) at 25 μL (1×10⁵ cells)/well. As primary antibodies, the eleven types of LPA1 antibodies produced and purified by the method described above and a mouse isotype control antibody (Fujifilm Wako Pure Chemicals Corporation) were diluted stepwise, which was added to each well at 25 μL/well, and allowed to stand at 4° C. for 1 hour. The cells were collected by centrifugation and washed with 120 μL of FACS buffer. This washing operation was repeated twice. To the cell sediment, 25 μL each of Goat Anti-Mouse IgG H&L (DyLight 650) (Abcam) that was a secondary antibody diluted by 500 times in FACS buffer was dispensed, then suspended, and then allowed to stand at 4° C. for 1 hour. The cells were washed twice, then suspended in 50 μL of FACS buffer, and the binding of antibodies to the cells was measured using a flow cytometer (Agilent Novocyte).
(§5) A graph was created, in which a concentration of the antibody was plotted on the […] axis, and a median fluorescence intensity of the flow cytometer histogram was plotted on the horizontal axis. All of the eleven antibodies were confirmed to dose-dependently bind to the human LPA1-stably expressing CHO cell and the mouse LPA1-stably expressing CHO cell. The results of the binding of each antibody to the human LPA1-stably expressing CHO cell are presented in FIG. 2A to FIG. 2K, and the results of the binding of each antibody to the mouse LPA1-stably expressing CHO cell are presented in FIG. 3A to FIG. 3K.
For B1, the EC50 turned out to be 1.8 nM. That is a single-digit nanomolar value.

B2 registered an EC50 of 4.2 nM.

Take B3: it took 2 nM to reach a half-maximal effect (EC50).

B4 registered an EC50 of 1.8 nM.

On to B5, for which the half-maximal effective concentration (EC50) was 1.9 nM.

In another assay the target is T6, mouse LPA1. Kind of assay: flow cytometry, mouse LPA1-stably expressing CHO cells, median fluorescence intensity.
Description: as §4, §5
B1 showed an EC50 of 2.4 nM.

Consider B2, for which a half-maximal effect (EC50) was put at 2.3 nM.

Molecule B3 came in with an EC50 of 1.3 nM. This EC50 lies about 1.8-fold lower than the previous one.

In turn, B4 had an EC50 of 2.1 nM.

On to B5, for which the EC50 worked out at 1 nM.

A further assay addresses T5, human LPA1. Kind of assay: cell-based or functional assay. This is another data set of the same source.
For B1, the “Intracellular cAMP signaling inhibition IC50” value was 40.9 nM.

Turning to B2, the “Intracellular cAMP signaling inhibition IC50” value worked out at 96.8 nM.

In the case of B3, the “Intracellular cAMP signaling inhibition IC50” value was 48.3 nM.

B4: the “Intracellular cAMP signaling inhibition IC50” value worked out at 18 nM.

B5: the “Intracellular cAMP signaling inhibition IC50” value stood at 33.1 nM.

A further assay has as its target T6, mouse LPA1. In words: cell-based or functional assay. The source holds these as a separate data set.
In the case of B1, the “Intracellular cAMP signaling inhibition IC50” value came to 197 nM.

As for B2, the “Intracellular cAMP signaling inhibition IC50” value is 199 nM.

Regarding B3, the “Intracellular cAMP signaling inhibition IC50” value is 124 nM.

Consider B4, for which the “Intracellular cAMP signaling inhibition IC50” value amounted to 163 nM.

B5: the “Intracellular cAMP signaling inhibition IC50” value was 114 nM.

For orientation: EC50 means the midpoint of the concentration-response curve. Higher therefore signals weaker potency.
